In PMC11405395 (The EMBO Journal, 2024):

Target: T1, Homo sapiens CMG helicase (CDC45-MCM2-7-GINS) (human, UniProt P49736 1-904; P25205 1-808; P33991 1-863; P33992 1-734; Q14566 1-821; P33993 …)
T1 construct: MCM2, human, subunit of CMG; MCM3, human, subunit of CMG; MCM4, human, subunit of CMG; MCM5, human, subunit of CMG; MCM6, human, subunit of CMG; MCM7, human, subunit of CMG; CDC45, human, subunit of CMG; SLD5 (GINS4), human, GINS subunit of CMG (PrA-3TEV-HsSld5; eluted from IgG Sepharose with TEV protease); PSF1 (GINS1), human, GINS subunit of CMG; PSF2 (GINS2), human, GINS subunit of CMG; PSF3 …
Test: co-IP; purified proteins mixed: 10 nM RTEL1-FLAG with 15 nM hsCMG, 10 min on ice; anti-FLAG M2 magnetic beads; 25 mM Hepes-KOH pH 7.6, 100 mM KOAc, 0.02% NP-40-S, 0.1 mg/mL BSA, 1 mM DTT, 10 mM Mg(OAc)2; immunoblotting
Conditions: both partners purified

B1: RTEL1ΔL834-G846 (enzyme, human, UniProt Q9NZ71-1 1-1219, looked up)
chain: MPKIVLNGVTVDFPFQPYKCQQEYMTKVLECLQQKVNGILESPTGTGKTLCLLCTTLAWREHLRDGISARKIAERAQGELFPDRALSSWGNAAAAAGDPIACYTDIPKIIYASRTHSQLTQVINELRNTSYRPKVCVLGSREQLCIHPEVKKQESNHLQIHLCRKKVASRSCHFYNNVEEKSLEQELASPILDIEDLVKSGSKHRVCPYYLSRNLKQQADIIFMPYNYLLDAKSRRAHNIDLKGTVVIFDEAHNVEKMCEESASFDLTPHDLASGLDVIDQVLEEQTKAAQQGEPHPEFSADSPSPGLNMELEDIAKLKMILLRLEGAIDAVELPGDDSGVTKPGSYIFELFAEAQITFQTKGCILDSLDQIIQHLAGRAGVFTNTAGLQKLADIIQIVFSVDPSEGSPGSPAGLGALQSYKVHIHPDAGHRRTAQRSDAWSTTAARKRGKVLSYWCFSPGHSMHELVRQGVRSLILTSGTLAPVSSFALEMQIPFPVCLENPHIIDKHQIWVGVVPRGPDGAQLSSAFDRRFSEECLSSLGKALGNIARVVPYGLLIFFPSYPVMEKSLEFWRARDLARKMEALKPLFVEPRSKGSFSETISAYYARVAAPGSTGATFLAVCRGKASEGLDFSDTNGRGVIVTGLPYPPRMDPRVVLKMQFLDEMKGQGGAGGQFLSGQEWYRQQASRAVNQAIGRVIRHRQDYGAVFLCDHRFAFADARAQLPSWVRPHVRVYDNFGHVIRDVAQFFRVAERTMPAPAPRATAPSVRGEDAVSEAKSPGPFFSTRKAKSLDLHVPSLKQRSSGSPAAGDPESSLCVEYEQEPVPARQRPRGSPGEEQAHSCSTLSLLSEKRPAEEPRGGRKKIRLVSHPEEPVAGAQTDRAKLFMVAVKQELSQANFATFTQALQDYKGSDDFAALAACLGPLFAEDPKKHNLLQGFYQFVRPHHKQQFEEVCIQLTGRGCGYRPEHSIPRRQRAQPVLDPTGRTAPDPKLTVSTAAAQQLDPQEHLNQGRPHLSPRPPPTGDPGSQPQWGSGVPRAGKQGQHAVSAYLADARRALGSAGCSQLLAALTAYKQDDDLDKVLAVLAALTTAKPEDFPLLHRFSMFVRPHHKQRFSQTCTDLTGRPYPGMEPPGPQEERLAVPPVLTHRAPQPGPSRSEKTGKTQSKISSFLRQRPAGTVGAGGEDAGPSQSSGPPHGPAASEWGL
notes: Plasmid pSP48; also called hsRTEL1ΔL834-G846; source: S. cerevisiae strain ySP072, purified (anti-FLAG M2 resin, HiLoad Superdex 200); not shown: 2XFLAG, C-terminal, kept
  binding result: binds
